Assay results published in patent US20040018971A1 (published 2004).

Assays:
[1] = target: T1, HLA-A*0101 (human); assay: inhibition of 125I-labeled probe peptide binding to purified HLA-A*0101, gel filtration
T1 construct: also called HLA-A1

[2] = target: T2, HLA-A*0301 (human); assay: competition with 125I-labelled probe peptide for purified HLA-A*0301, gel filtration; ratio to standard peptide 941.12
T2 construct: also called HLA-A3

[3] = target: HLA-A*0301 (human); assay: inhibition of 125I-labelled standard peptide binding to purified HLA, gel filtration
[4] = target: HLA-A*3101 (human); assay: as above
[5] = target: HLA-A*1101 (human); assay: as above
[6] = target: HLA-A*6801 (human); assay: as above
[7] = target: HLA-A*3301 (human); assay: as above
[8] = target: T3, HLA-DRB1*0101 (human); assay: competition with 125I probe peptide, purified HLA
T3 construct: also called DR1

[9] = target: T4, HLA-A*0301 (human); assay: inhibition of 125I-labelled standard peptide 941.12 binding to purified HLA-A*0301, gel filtration
T4 construct: also called HLA-A3

[10] = target: T5, HLA-A*1101 (human); assay: competition with 125I-labelled standard peptide for purified HLA, gel filtration
T5 construct: The construct is not described

[11] = target: T6, HLA-A*0301 (human); assay: as above
T6 construct: also called A3

[12] = target: T7, HLA-A*0301 (purified HLA class I molecule) (human); assay: inhibition of 125I probe peptide binding to purified HLA; ratio to standard peptide; minus sign not explained
T7 construct: also called A3

[13] = target: HLA-A*1101 (purified HLA class I molecule) (human); assay: inhibition of 125I probe peptide binding to purified HLA; ratio to standard peptide

**Q.** With ETMPNPEGRY (HER2/neu analog peptide) [Her2/neu.280.T2] as the binder, how does the IC50 [1] read?
**A.** 0.0039 µM

**Q.** How did the “relative binding ratio (IC50 of standard peptide / IC50 of test peptide)” value [2] turn out when DLAARNVLVK (Synthetic peptide) [HER2/neu peptide, position 845, 10 amino acids (DLAARNVLVK)] was run?
**A.** 0.0018 ratio

**Q.** RLVHRDLAAR (Synthetic A3 supermotif peptide) [HER2/neu peptide, position 840, 10 amino acids] was tested. Which relative binding ratio [3] did it give?
**A.** 0.18 ratio (IC50 of standard peptide / IC50 of test peptide)

**Q.** What about the relative binding ratio [4] of the same binder?
**A.** 0.95 ratio (IC50 of standard peptide / IC50 of test peptide)

**Q.** And the relative binding ratio [5]?
**A.** 0.0001 ratio (IC50 of standard peptide / IC50 of test peptide)

**Q.** And the relative binding ratio [6]?
**A.** 0.0036 ratio (IC50 of standard peptide / IC50 of test peptide)

**Q.** What about the relative binding ratio [7] of the same binder?
**A.** 0.0021 ratio (IC50 of standard peptide / IC50 of test peptide)

**Q.** Which IC50 [8] does the source give for ITDFGLARLLDIDET [Her2/neu.861] here?
**A.** 1.04 µM

**Q.** For QALLHTANR [HER2/neu peptide, position 491, 9 amino acids], which “relative binding ratio (IC50 of standard peptide / IC50 of test peptide)” value [9] is on record?
**A.** 0.0046 ratio

**Q.** What does the source list for TIDVYMIMVK (Synthetic A3 supermotif peptide) [HER2/neu peptide, position 948, 10 amino acids]?
**A.** relative binding ratio [3]: 0.013 ratio (IC50 of standard peptide / IC50 of test peptide); relative binding ratio [4]: 0.0018 ratio (IC50 of standard peptide / IC50 of test peptide); relative binding ratio [5]: 0.12 ratio (IC50 of standard peptide / IC50 of test peptide); relative binding ratio [6]: 0.025 ratio (IC50 of standard peptide / IC50 of test peptide); relative binding ratio [7]: 0.012 ratio (IC50 of standard peptide / IC50 of test peptide)

**Q.** KVPIKWMALESILRR [Her2/neu.883] was tested. Which IC50 [8] did it give?
**A.** 0.0023 µM

**Q.** With VTACPYNY (HER2/neu peptide) [Her2/neu.296] as the binder, how does the IC50 [1] read?
**A.** 0.25 µM

**Q.** How did the “relative binding ratio (IC50 of standard peptide / IC50 of test peptide)” value [9] turn out when PTHDPSPLQR (H was used here) [HER2/neu peptide, position 1102, 10 amino acids] was run?
**A.** 0.0003 ratio

**Q.** Which “relative binding ratio (IC50 of standard peptide / IC50 of test peptide)” value [9] does the source give for PLTCSPQPEY [HER2/neu peptide, position 1130, 10 amino acids] here?
**A.** 0.0002 ratio

**Q.** Which IC50 [1] does the source give for EADQCVACAHY (HER2/neu peptide) [Her2/neu.580] here?
**A.** 0.25 µM

**Q.** With ELHCPALVTY (Synthetic peptide) [HER2/neu peptide, position 265, 10 amino acids (ELHCPALVTY)] as the binder, how does the “relative binding ratio (IC50 of standard peptide / IC50 of test peptide)” value [2] read?
**A.** 0.0002 ratio

**Q.** With ETLEEITGY (Synthetic peptide) [HER2/neu peptide, position 401, 9 amino acids (ETLEEITGY)] as the binder, how does the “relative binding ratio (IC50 of standard peptide / IC50 of test peptide)” value [2] read?
**A.** 0.0002 ratio

B1: HER2/neu peptide, position 888, 9 amino acids (peptide)
peptide: WMALESILR
notes: Synthetic peptide; also called Her2/neu.888 (9-mer)
**Q.** Which relative binding ratio [10] does the source give for B1 here?
**A.** -0.0002 ratio (IC50 of standard peptide / IC50 of test peptide)

**Q.** What about the relative binding ratio [11] of the same binder?
**A.** -0.0002 ratio (IC50 of standard peptide / IC50 of test peptide)

B2: HER2/neu peptide, position 973, 9 amino acids (peptide)
peptide: VSEFSRMAR
notes: Synthetic peptide; also called Her2/neu.973 (9-mer)
**Q.** What does the source list for B2?
**A.** relative binding ratio [10]: 0.0021 ratio (IC50 of standard peptide / IC50 of test peptide); relative binding ratio [11]: -0.0002 ratio (IC50 of standard peptide / IC50 of test peptide)

**Q.** Which IC50 [1] does the source give for ASCVTACPY (HER2/neu peptide, 9-mer) [Her2/neu.293] here?
**A.** 0.455 µM

**Q.** With ATCVTACPY (HER2/neu analog peptide) [Her2/neu.293.T2] as the binder, how does the IC50 [1] read?
**A.** 0.049 µM

**Q.** With ETEYHADGGK (Synthetic peptide) [HER2/neu peptide, position 874, 10 amino acids (ETEYHADGGK)] as the binder, how does the “relative binding ratio (IC50 of standard peptide / IC50 of test peptide)” value [2] read?
**A.** 0.0003 ratio

**Q.** QVRQVPLQR [HER2/neu peptide, position 90, 9 amino acids] was tested. Which “relative binding ratio (IC50 of standard peptide / IC50 of test peptide)” value [9] did it give?
**A.** 0.0029 ratio

**Q.** For GMSYLEDVR (also called Her2/neu.832 (9-mer)) [HER2/neu peptide, position 832, 9 amino acids], which relative binding ratio [12] is on record?
**A.** -0.0002 ratio (IC50 standard / IC50 test)

**Q.** And the relative binding ratio [13]?
**A.** 0.0002 ratio (IC50 standard / IC50 test)

**Q.** How did the IC50 [8] turn out when DMKLRLPASPETHLD [Her2/neu.30] was run?
**A.** 5 µM

**Q.** DLSYMPIWK (Synthetic peptide) [HER2/neu peptide, position 607, 9 amino acids (DLSYMPIWK)] was tested. Which “relative binding ratio (IC50 of standard peptide / IC50 of test peptide)” value [2] did it give?
**A.** 0.0005 ratio

**Q.** For ETELVEPLTPSGAMP [Her2/neu.693], which IC50 [8] is on record?
**A.** 0.833 µM

B3: HER2/neu peptide, position 888, 10 amino acids (peptide)
peptide: WMALESILRR
notes: Synthetic peptide; also called Her2/neu.888 (10-mer)
**Q.** With B3 as the binder, how does the relative binding ratio [10] read?
**A.** 0.0016 ratio (IC50 of standard peptide / IC50 of test peptide)

**Q.** What about the relative binding ratio [11] of the same binder?
**A.** 0.0085 ratio (IC50 of standard peptide / IC50 of test peptide)

**Q.** For DVRPQPPSPR (Synthetic peptide) [HER2/neu peptide, position 1144, 10 amino acids (DVRPQPPSPR)], which “relative binding ratio (IC50 of standard peptide / IC50 of test peptide)” value [2] is on record?
**A.** 0.0003 ratio

**Q.** Which “relative binding ratio (IC50 of standard peptide / IC50 of test peptide)” value [9] does the source give for QLVTQLMPY [HER2/neu peptide, position 795, 9 amino acids] here?
**A.** 0.011 ratio

**Q.** With QVCTGTDMK (Synthetic A3 supermotif peptide) [HER2/neu peptide, position 24, 9 amino acids] as the binder, how does the relative binding ratio [3] read?
**A.** 0.0007 ratio (IC50 of standard peptide / IC50 of test peptide)

**Q.** What about the relative binding ratio [4] of the same binder?
**A.** 0.0002 ratio (IC50 of standard peptide / IC50 of test peptide)

**Q.** And the relative binding ratio [5]?
**A.** 0.052 ratio (IC50 of standard peptide / IC50 of test peptide)

**Q.** What about the relative binding ratio [6] of the same binder?
**A.** 0.011 ratio (IC50 of standard peptide / IC50 of test peptide)

**Q.** What about the relative binding ratio [7] of the same binder?
**A.** 0.0006 ratio (IC50 of standard peptide / IC50 of test peptide)
